The values below are quoted from earlier work in PMC11346406.

The data set addresses TDP-43 PLD (Homo sapiens) (UniProt Q13148). The data set can be described thus: NMR.

TDP-43 PLD (Homo sapiens), sequence (Q13148 274-414): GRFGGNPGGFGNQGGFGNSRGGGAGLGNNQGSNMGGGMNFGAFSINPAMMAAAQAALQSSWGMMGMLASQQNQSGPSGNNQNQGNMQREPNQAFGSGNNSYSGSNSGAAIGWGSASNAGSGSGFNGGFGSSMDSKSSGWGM
TDP-43 RRM1-RRM2, sequence (Q13148 102-269): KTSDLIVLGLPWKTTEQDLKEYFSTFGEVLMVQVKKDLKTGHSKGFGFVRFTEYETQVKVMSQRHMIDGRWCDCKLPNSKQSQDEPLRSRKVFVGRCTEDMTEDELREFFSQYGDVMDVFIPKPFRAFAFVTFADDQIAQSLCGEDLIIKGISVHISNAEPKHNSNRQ

For TDP-43 RRM1-RRM2 (from UniProt Q13148), the Kd – broadly, the equilibrium constant for the complex coming apart – was 5 µM.
